Like-named read-outs stand apart in the source and are kept apart here.
Columns and labels:
[1] = biological target: Sag1 (Saccharomyces cerevisiae) (UniProt P20840); assay: cell-based or functional assay
[2] = biological target: Sag1 (Saccharomyces cerevisiae) (UniProt P20840); assay: cell-based or functional assay; remark: listed apart in the source
[3] = biological target: Bcl2 (UniProt P10415); assay: affinity as tabulated ('known affinities'); method not stated
[4] = biological target: T1, BclB (UniProt Q9HD36); assay: as above
T1 sequence (looked up): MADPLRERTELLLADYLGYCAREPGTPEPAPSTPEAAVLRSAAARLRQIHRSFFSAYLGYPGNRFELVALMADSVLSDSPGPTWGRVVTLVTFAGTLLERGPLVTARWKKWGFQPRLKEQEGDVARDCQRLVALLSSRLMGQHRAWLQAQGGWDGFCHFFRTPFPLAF

[5] = biological target: BclW (UniProt Q92843); assay: as above
BclW, sequence (Q92843 1-182 limits assumed): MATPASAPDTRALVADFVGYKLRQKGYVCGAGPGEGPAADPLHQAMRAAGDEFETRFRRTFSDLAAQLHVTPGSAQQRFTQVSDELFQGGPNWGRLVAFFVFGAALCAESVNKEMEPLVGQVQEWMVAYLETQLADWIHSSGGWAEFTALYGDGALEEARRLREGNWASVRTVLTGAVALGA

[6] = biological target: BclXL (UniProt Q07817); assay: as above
BclXL, sequence (Q07817 1-209 limits assumed): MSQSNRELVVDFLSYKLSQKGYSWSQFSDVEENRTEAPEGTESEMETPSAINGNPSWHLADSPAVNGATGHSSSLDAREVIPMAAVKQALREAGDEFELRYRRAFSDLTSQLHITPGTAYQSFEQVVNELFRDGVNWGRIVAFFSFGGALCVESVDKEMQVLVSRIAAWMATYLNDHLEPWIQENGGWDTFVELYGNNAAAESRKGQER

[7] = biological target: Bfl1 (UniProt Q16548); assay: as above
Bfl1, sequence (Q16548 1-153 limits assumed): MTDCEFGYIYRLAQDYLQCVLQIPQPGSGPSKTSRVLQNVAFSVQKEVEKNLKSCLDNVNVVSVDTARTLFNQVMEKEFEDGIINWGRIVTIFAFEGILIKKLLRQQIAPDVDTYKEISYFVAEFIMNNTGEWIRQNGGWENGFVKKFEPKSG

[8] = biological target: Mcl1 (UniProt Q07820); assay: as above
Mcl1, sequence (Q07820 whole entry): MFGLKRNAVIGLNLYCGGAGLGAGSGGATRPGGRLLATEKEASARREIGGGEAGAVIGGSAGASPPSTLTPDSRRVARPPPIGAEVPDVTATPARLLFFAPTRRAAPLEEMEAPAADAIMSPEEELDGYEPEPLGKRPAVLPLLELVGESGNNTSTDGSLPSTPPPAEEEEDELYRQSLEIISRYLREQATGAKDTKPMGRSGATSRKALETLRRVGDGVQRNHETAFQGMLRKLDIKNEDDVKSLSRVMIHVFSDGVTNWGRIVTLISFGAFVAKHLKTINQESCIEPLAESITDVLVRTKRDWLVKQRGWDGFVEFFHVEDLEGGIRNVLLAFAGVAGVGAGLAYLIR

Sag1 (Saccharomyces cerevisiae), sequence (P20840 20-627): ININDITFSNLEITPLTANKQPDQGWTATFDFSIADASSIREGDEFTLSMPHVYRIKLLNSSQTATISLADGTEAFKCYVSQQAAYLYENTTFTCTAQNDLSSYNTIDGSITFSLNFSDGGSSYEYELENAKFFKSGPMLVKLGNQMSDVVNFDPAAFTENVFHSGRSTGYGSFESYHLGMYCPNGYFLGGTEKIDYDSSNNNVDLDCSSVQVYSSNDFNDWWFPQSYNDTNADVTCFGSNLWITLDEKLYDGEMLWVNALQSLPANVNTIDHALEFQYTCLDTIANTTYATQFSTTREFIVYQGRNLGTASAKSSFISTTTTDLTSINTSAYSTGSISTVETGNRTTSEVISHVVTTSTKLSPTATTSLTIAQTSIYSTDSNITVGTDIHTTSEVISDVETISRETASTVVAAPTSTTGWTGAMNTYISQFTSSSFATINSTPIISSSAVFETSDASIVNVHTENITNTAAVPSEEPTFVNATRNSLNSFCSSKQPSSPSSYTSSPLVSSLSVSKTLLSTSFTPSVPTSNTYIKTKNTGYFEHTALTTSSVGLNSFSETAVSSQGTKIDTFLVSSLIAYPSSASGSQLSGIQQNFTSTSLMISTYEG
Bcl2, sequence (P10415 1-207 limits assumed): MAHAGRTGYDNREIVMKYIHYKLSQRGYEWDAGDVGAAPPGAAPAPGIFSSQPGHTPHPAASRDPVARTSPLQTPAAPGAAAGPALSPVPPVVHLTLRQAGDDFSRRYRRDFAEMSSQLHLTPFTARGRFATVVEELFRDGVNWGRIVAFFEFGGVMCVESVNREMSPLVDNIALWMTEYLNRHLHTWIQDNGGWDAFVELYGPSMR

Molecule | mating efficiency [1] [%] | mating efficiency [2] [%] | Kd [3] [nM] | Kd [4] [nM] | Kd [5] [nM] | Kd [6] [nM] | Kd [7] [nM] | Kd [8] [nM]
Aga2 (from UniProt P32781 19-87) | > 50 | 57.1 |  |  |  |  |  | 
BINDI-BCDP01 (designed binder, from a related filing) ADPKKVLDKAKDQAENRVRELKQELERLYKEARKLDLTQEMRRKLEWRYIAAMLKAIGDILNAIAQAENEADKLKKAGLVNSQQLDELRRRLEELAKEAARKAHDYGREFQLKLEY |  |  | 17.3 | 8.33 | 2010 | 20.2 | 518 | 0.46
XINDI-XCDP07 (designed binder, from a related filing) ADPKKVLDKAKDRAENVVRKLKKELEELYKEARKLDLTQEMRDRIRLAAIAARIAAFGDIFHAIMEALEEARKLKKAGLVNSQQLDELKRRLEELDEEAAQRAEKLGKEFELKLEY |  |  | 3.81 | 107 | 14.9 | 0.59 | 7050 | 17.4

— patent US20210054365A1
